The experiment has as its target T1, release factor RF2 (E. coli (K12 strain), UniProt P07012 1-365).
T1 sequence: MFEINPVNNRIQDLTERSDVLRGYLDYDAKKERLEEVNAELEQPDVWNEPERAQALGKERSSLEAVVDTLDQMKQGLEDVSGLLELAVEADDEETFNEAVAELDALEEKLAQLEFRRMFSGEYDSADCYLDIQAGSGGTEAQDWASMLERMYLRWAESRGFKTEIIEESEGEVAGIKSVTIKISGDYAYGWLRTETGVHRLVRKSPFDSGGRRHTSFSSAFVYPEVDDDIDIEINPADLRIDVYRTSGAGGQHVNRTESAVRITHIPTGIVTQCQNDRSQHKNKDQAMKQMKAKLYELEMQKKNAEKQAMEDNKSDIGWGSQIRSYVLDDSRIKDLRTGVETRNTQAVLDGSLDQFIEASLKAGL
Description: cryo-EM structure.

B1: ArfA (alternative rescue factor A) (natural protein, E. coli, UniProt P36675 1-60, looked up)
chain: MSRYQHTKGQIKDNAIEALLHDPLFRQRVEKNKKGKGSYMRKGKHGNRGNWEASGKKVNH
On to B1, for which the binding result is reported as “binds”.

For the origin of these results see article doi:10.1101/091256 (bioRxiv, 2016).
